The source of these data is publication PMC6367718 (Cell, 2019).

In data set [1] the target is T1, TRV055-occupied FLAG-AT1R (human, UniProt P30556).
T1 chain 1: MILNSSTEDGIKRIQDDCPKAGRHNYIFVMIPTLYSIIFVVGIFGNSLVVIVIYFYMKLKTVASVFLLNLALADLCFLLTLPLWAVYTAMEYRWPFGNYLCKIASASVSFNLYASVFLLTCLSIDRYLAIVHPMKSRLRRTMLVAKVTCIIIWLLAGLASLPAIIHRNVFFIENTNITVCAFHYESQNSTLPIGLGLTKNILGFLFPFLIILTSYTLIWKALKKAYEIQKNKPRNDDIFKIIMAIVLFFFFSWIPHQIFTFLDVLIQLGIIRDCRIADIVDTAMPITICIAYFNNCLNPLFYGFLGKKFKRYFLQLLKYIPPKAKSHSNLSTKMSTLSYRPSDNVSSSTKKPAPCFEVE
T1 chain 2: GVYIHPF
Kind of data set: radioligand binding.

The data set “crystal structure” deals with the molecule itself. The data set is described as follows: crystal structure.

B1: Nb.AT110, purified (VHH)
VHH: QVQLQESGGGLVQAGGSLRLSCAASGNIFDADIMGWYRQAPGKERELVASITDGGSTNYADSVKGRFTISRDNAKNTVYLQMNSLKPEDTAVYYCAAIAYPDIPTYFDYDSDYFYWGQGTQVTVSS
Take B1: the “log EC50 (M) of the change in the log IC50 of TRV055” value in data set [1] was -6.6 log M.

B2: Nb.AT110i1, carboxypeptidase A-treated (for crystallography) (VHH)
VHH: QVQLQESGGGLVQAGGSLRLSCAASGNIFDVDIMGWYRQAPGKERELVASITDGGSTDYADSVKGRFTISRDNAKNTVYLQMNSLKPEDTAVYYCAAVAYPDIPTYFDYDSDNFYWGQGTQVTVSS
On to B2, for which, in the data set “crystal structure”, the binding result is listed as “binds”.
